The DeepSol protein solubility set

Test: soluble on expression in E. coli; label from the status in PepcDB or PDB records

Row | Sequence | soluble on expression in E. coli
1 | MSAIENFDAHTPMMQQYLRLKAQHPEILLFYRMGDFYALFYDDAKRASQLLDISLTKRGASAGEPIPMAGIPYHAVENYLAKLVNQGESVAICEQIGDPATSKGPVERKVVRIVTPGTISDEALLQERQDNLLAAIWQDSKGFGYATLDISSGRFRLSEPADRETMAAELQRTNPAELLYAEDFAEMSLIEGRRGLRRRPLWEFEIDTARQQLNLQFGTRDLVGFGVENAPRGLCAAGCLLQYAKDTQRTTLPHIRSITMEREQDSIIMDAATRRNLEITQNLAGGAENTLASVLDCTVTPMGSRMLKRWLHMPVRDTRVLLERQQTIGALQDFTAGLQPVLRQVGDLERILARLALRTARPRDLARMRHAFQQLPELRAQLETVDSAPVQALREKMGEFAELRDLLERAIIDTPPVLVRDGGVIASGYNEELDEWRALADGATDYLERLEVRERERTGLDTLKVGFNAVHGYYIQISRGQSHLAPINYMRRQTLKNAERYIIPELKEYEDKVLTSKGKALALEKQLYEELFDLLLPHLEALQQSASALAELDVLVNLAERAYTLNYTCPTFIDKPGIRITEGRHPVVEQVLNEPFIANPLNLSPQRRMLIITGPNMGGKSTYMRQTALIALMAYIGSYVPAQKVEIGPIDRIFTRVGAADDLASGRSTFMVEMTETANILHNATEYSLVLMDEIGRGTSTYDGLSLAWACAENLANKIKALTLFATHYFELTQLPEKMEGVANVHLDALEHGDTIAFMHSVQDGAASKSYGLAVAALAGVPKEVIKRARQKLRELESIS | soluble
2 | MSAKNRLDVFDKKTRDVIESDLVKMRGYKRNIGSRNQEMTMKNVEKKVEQMGAKNEEMFSMISKIMQKPNSTGHLQWDSQTLADLMNKSDSFDDDQESLNMPRSSESSAMSVRNRTLERQSEPVRKSPKAAPKVKNEAGITASYVTSEMSDRRSIDEVMVRAAKNAKREEKFDLGFFKFISLAGHILESSCKHSEDQEDPSCLKCKYDRELKLEERPEMVFARNSLTIQFGRLGSIEFNALDALKMVCADRLPDVKVGASTVWQSARQDRIQQISEHQKPFDWTYTTHYKGTVTGCQVTPTTERIDMERLKRRDEILFSSSITLFEDELADHGIAQLLARVRVMRGYFFVLLRFYMRVDNVLLRVCDTRIVGNEFDGHVIREWQLREAKYGNLGHVDPEELLDVDRAWMHLPVVEEHFDRVSVDRERLF | not soluble
3 | MSAPTTFSVALHNETATAQLMADLALLVGPGDVITLTGDLGAGKTAAARAMIRYLADDEALEVPSPTFTLVQGYELPPFPVMHADLYRVEDESELEEIGLSPLPDATLVLIEWPERAPSALPEDRIDIALTHRPALGSNARAADITGYGKSAAQVARLKALREFLDASGYLDAMRRRMAGDASTRSYARLLRDDEIVILMNFPQRPDGAALYNGKSYSAAVHLAENVKPFVAIDEGLRAQGISAPAIHHADLDHGFLISEDFGSEGVIEGNPPRPIPERYEAATDVLAVLHGKTLPETLPLDGQSYAIPVFDTEAMLIEIGLMPEWYLPDRNAPLSEPKRAEFFAMWRELLKKPLAAPRTWIIRDYHSPNLIWLGMRTGIERVGVIDFQDTVLGPQSYDVVSLLQDARIDVPENLELTLLSRYIKARRAGDASFDPAGFAELYAIMSAQRNTRLLGTFARLNRRDGKPHYLRHQPRIWTYLQRSLAHPALSHLRDWYLANVPPPQRPSQEPAPEPPQGLEHHHHHH | soluble
4 | MSAQAKPRSEMTAEELAAKEDEEFNVGPLSILTNSVKNNHQVLINCRNNKKLLGRVKAFDRHCNMVLENVKEMWTEVPKTGKGKKKAKSVAKDRFISKMFLRGDSVILVVKNPLAQAE | not soluble
5 | MSASFDRYVSFQHCDWEGRSERVMQRLQRHVEAAENPFWAYFAQKRAELRDKQGLDDLRILHNYLPTLRELLEDNGDLETLEMLEDLEANLM | not soluble
6 | MSASFSNNACYMDVMIEIISLRLRLAIASSDRVPLWPFPSRQYMPTRPGWSRWRHPTVVVEPMRNQNFSYHKCNNKIDSSKHISTLSH | not soluble
7 | MSASVPADLRNLRACLLCSLVKSVESFQKEGCENCEDVLHLKGDEEKVYDCTSANYDGMIAAMSNNESWVCKWQKMQRKVKGMYAISVSGVLPNNIVSELKSLGVRYKPNQRDYSTQFKK | not soluble
8 | MSATGPGIVVIDKPAGMTSHDVVGRCRRIFATRRVGHAGTLDPMATGVLVIGIERATKILGLLTAAPKSYAATIRLGQTTSTEDAEGQVLQSVPAKHLTIEAIDAAMERLRGEIRQVPSSVSAIKVGGRRAYRLARQGRSVQLEARPIRIDRFELLAARRRDQLIDIDVEIDCSSGTYIRALARDLGDALGVGGHVTALRRTRVGRFELDQARSLDDLAERPALSLSLDEACLLMFARRDLTAAEASAAANGRSLPAVGIDGVYAACDADGRVIALLRDEGSRTRSVAVLRPATMHPGGVPRGKLAAALEHHHHHH | soluble
9 | MSATKSEMPADVASVTDSSAASPAFPLIGDFLEEFLKCQVCCTNYNETTKLARGLHCGHTFCTECIKTMQKYGNSAYLECPSCRAETKCDIAAVSTNFAIMELIRKCGFLGPEKPEEPPMKQAAQPQLEQTIDELIDEGYRLLIADVKADLMAKFEQLRDVSKTSTIEATKADLEVLCDSVKEAVYEADLEYSYDEEESDEDEEENEDEEDVEEEEEKPCAEKKSPAQPERSSSLVRGFQIGLSRLFRNRRIHTEHLQVDHGAIATKLETRAACTEKSDNVKK | not soluble
10 | MSATVVDAVNAAPLSGSKEMSLEEPKKMTREDWRKKKELEEQRKLGNAPAEVDEEGKDINPHIPQYISSVPWYIDPSKRPTLKHQRPQPEKQKQFSSSGEWYKRGVKENSVITKYRKGACENCGAMTHKKKDCFERPRRVGAKFTGTNIAPDEHVQPQLMFDYDGKRDRWNGYNPEEHMKIVEEYAKVDLAKRTLKAQKLQEELASGKLVEQANSPKHQWGEEEPNSQTEKDHNSEDEDEDKYADDIDMPGQNFDSKRRITVRNLRIREDIAKYLRNLDPNSAYYDPKTRAMRENPYANAGKNPDEVSYAGDNFVRYTGDTISMAQTQLFAWEAYDKGSEVHLQADPTKLELLYKSFKVKKEDFKEQQKESILEKYGGQEHLDAPPAELLLAQTEDYVEYSRHGTVIKGQERAVACSKYEEDVKIHNHTHIWGSYWKEGRWGYKCCHSFFKYSYCTGEAGKEIVNSEECIINEITGEESVKKPQTLMELHQEKLKEEKKKKKKKKKKHRKSSSDSDDEEKKHEKLKKALNAEEARLLHVKETMQIDERKRPYNSMYETREPTEEEMEAYRMKRQRPDDPMASFLGQ | not soluble
11 | MSAVMATYLLHDETDIRKKAEGIALGLTIGTWTDLPALEQEQLRKHKGEVVAIEELGESERVNAYFGKRLKRAIVKIAYPTVNFSADLPALLVTTFGKLSLDGEVRLLDLEFPDEWKRQFPGPRFGIDGIRDRVGVHNRPLLMSIFKGMIGRDLAYLTSELKKQALGGVDLVKDDEILFDSELLPFEKRITEGKAALQEVYEQTGKRTLYAVNLTGKTFALKDKAKRAAELGADVLLFNVFAYGLDVLQALREDEEIAVPIMAHPAFSGAVTPSEFYGVAPSLWLGKLLRLAGADFVLFPSPYGSVALEREQALGIARALTDDQEPFARAFPVPSAGIHPGLVPLIIRDFGLDTIVNAGGGIHGHPDGAIGGGRAFRAAIDAVLAGRPLRAAAAENEALQKAIDRWGVVEVEA | soluble
12 | MSCTGFWRKLASGEECGAAARLLGAVLAIPAALYGLVVRLRALAYARGLSTVRHLDRPVISVGNLTVGGTGKTPMVAYLARRLMARGKRVAVISRGYGGSLEGETRIVSDGRTIVLSAAEAGDEPVHLATSVPGLMTVIGTDRYTAGLLALEQLDPDVFILDDGYQHLRLHRDLNILLMDCNRPLGNGRTLPAGLLREPQTAVRRADLVVYTRCTGGKAPAVHGMIPSCRAGHALTGAALLPDGEVQPLAALRGLRGVACAGIAEPEGFFDALRREGLDIVAAIPFADHASYGEREVSTLREAAAGADYLITTGKDGVKLSAHLARLLPVYATVLEMRPLDPAPLEAALDKVLTHISSCKSLEHHHHHHTHISSCKSLEHHHHHHTHISSCKSLEHHHHHHTHISSCKSLEHHHHHHTHISSCKSLEHHHHHHTHISSCKSLEHHHHHHTHISSCKSLEHHHHHH | not soluble
13 | MSDESNPPKVILLVEDSKADSRLVQEVLKTSTIDHELIILRDGLAAMAFLQQQGEYENSPRPNLILLDLNLPKKDGREVLAEIKQNPDLKRIPVVVLTTSHNEDDVIASYELHVNCYLTKSRNLKDLFKMVQGIESFWLETVTLPAAPG | soluble
14 | MSDFMSNTAALQLLHNAVKSYEREVANFFAANEKATSKYTGRFDFRQFAKKMFDPIPTAQLGQLYIEMLEESHIYMHSHQKSRVGANGYPHSFVSVPELLLNMILAYQLPQQRFVPAEKMEEDGGKVEEDGGAGGAGGSRKKRRNSAARKGKNVTINPRVVLGNELAAKLLEEMLKIPLAPESKQWKTAKYVLCPSSCPQQMEVFGEIIAKNTKSGLISFNALNYFMHDPILNRYLDDPITILHALYIGPLQAPTVELFATNRTDVFRQRCREVLRIALHASKDPMTFTYSVPEFIDKNHPDRCSYRDFVETVTQLIRDLNGEHQGSTAIHTGWACAAIKKFGQKRYVDKTWKDENYYDLIWTVLAQRPHLKKFVVDVLEKNFKDLDAARFWRRMQPYQMNPTVIFNQNVIIVDPLQPTDEFLNFPPTVRHIQMVTNEKEIRDLQMLLEYKVSREEKIYVGVDAEWSAYVSPSKATILQMSLHDCIYIIDLESYQISPQSYHHVLSYLFETPEIVKIGFQFGEDLHQLRAAFRNCVALYRPNNVVCVGKLIMDLMDEIGKLENCDDFRKEWLPHLTDNETSSAANSSVEEQANETIDTNESMDEGDGGGSGIVVKKEESVKQQFLNKGLSFICEKLLGRPLDKTEQCSVWDRRPLRCLQLRYAAMDAYCMLLLYEKCATIFAKLGINVNDFVSKQSPIRISLPLLSEEKL | not soluble
15 | MSDGQHRAADAVVVGAGLAGLACALDLCRAGWRVALLEASDGVGGRMRTDRRDGFLLDRGFQVFNTSYPQVKRRMELKSLRLRPFTAGVVAHTSNGPVRLADPTREPRAAGTLLPGRALPARDLAALAALTARDAVLPVAVTRRRRDRPTSAALSRVGLSDAAIAGILRPFLSGVFLEDRLETSARFFHLVWRSMVRGSLCLPAEGIGAVPAQLADGLPDGVLRLGTPVAEITDAGVLLGDGGEVPARVVVVATDPATAAGLLPDLTVPDTRTVTTYYHATDSPPTAEPILMVDSTGAILNTCVLSQVAPTYAPPGTGLVSTSVLGTDPPGRAQAVLRRLAELYGTDTSGWEQVAARTVDGALPAMLPPWPLSRTTRIGPGRYVCGDHRATGSVQGALASGTRAAREVRADREPQRLEHHHHHH | soluble
16 | MSDHLGSSHDEGELSDESHKKSQRASSSDEPNPAKSNKGLESKMRESILSRLSKRKNSESDDDTTEQRFSIQPKNAQKAKEDRYRDKERDKKREKDKRDDRRDVRGPDARQKDRDFKGRQERSGRDQKVHEHRHHHHHRKHETDGHRTNRSNRDRSSERDSEKHKRHIDRHKKSSTTSPDNDKSPHKKSKHTDVPADAKLFDRILDPNYKKKDDDVLVIEDVEMSPIEILEEKEEKEIVEFTIDSPAGPKKYSKFESDPESDHDDTKPKSPGKAEDDDDVIEVLDDALHSDDDADSDEDKYLKTPEDREWEEMTETEQRLHKEAMKKRASMKQKTLIAQLPVFYPGLMGCRNIDEYECVNRVDEGTFGVVYRGKDKRTDEIVALKRLKMEKEKEGFPITALREINMLLKAGNHPNIVNVKEILLGSNMDKIYMAMEFVEHDMKSLLDTMSRRNKRFSIGEQKTLLQQLLSGIEHMHKLWILHRDLKTSNLLMSHKGILKIADFGLAREYGDPLKKFTSIVVTLWYRSPELLLGTRLYSTPVDMWSVGCIMAEFILLKPLFPGRGELEQIKKIFMEMGTPTESIWPGVTELDGWKALTFEKYPYNQLRKRFLAGRLLNDTGFKLLNGLLTLDPKNRFSATQALDHEWFTEEPYPVPPEEFPTFPAKSEQNKAPPPAKQKQQENRISHVDPETAKLLKQFEVRPEQVKPGGFSLKFDPTRF | not soluble
